The results in this text go back to patent US20180072770A1, “Influenza Virus Binding Peptides” (priority 2014, published 2018).

As a reminder, the IC50 is the concentration that inhibits the measured activity by half. Usually Kd stands for a measure of binding affinity in units of concentration. High values mean weaker binding, low ones tighter binding.

For assay [1], the target named is T1, hemagglutinin of influenza A virus X31 (A/Aichi/2/68 H3N2) (influenza A virus A/Aichi/2/68 H3N2 (X31)), P03437.
Assay [2] concerns the target T1, hemagglutinin of influenza A virus X31 …. This is another data set of the same source.
Assay [3] shares this target. Briefly: cell-based or functional assay.
For assay [4] the target is unchanged. Kind of assay: SPR competition, virus preincubated with peptide, immobilised fetuin.

No end group written: not given here.

B1: reference peptide with SEQ ID NO:1 (FYDYDVFY), N-terminal (Lys)4, C-terminal amide (peptide)
peptide: KKKKFYDYDVFY
modifications: not fully specified (C-terminus)
B1 gave an IC50 in assay [1] of 90 µM. Further, the Kd in assay [2] was 59 µM. In addition, in assay [3], the Hemagglutination inhibition (IC50, HAI) turned out to be 163 µM and the Mean Ki(HAI), hemagglutination inhibition assay, human erythrocytes came out at 235 µM.

B2: peptide with SEQ ID NO:28, N-terminal (Lys)4, C-terminal amide (peptide)
peptide: KKKKFYGYDVFF
modifications: not fully specified (C-terminus)
B2 had a fold lower IC50,RB than the reference peptide SEQ ID NO:1 in assay [4] of 4.5 fold. For the same molecule, in assay [1], the IC50 was found to be 20 µM. In assay [3], this molecule returned a Hemagglutination inhibition (IC50, HAI) of 18 µM and a Mean Ki(HAI), hemagglutination inhibition assay, human erythrocytes of 31.9 µM.
